Test results published in PMC7745056.

Target: T1, IiWRKY34 (Isatis indigotica, UniProt A0A6G8R7I5 1-302)
T1 sequence: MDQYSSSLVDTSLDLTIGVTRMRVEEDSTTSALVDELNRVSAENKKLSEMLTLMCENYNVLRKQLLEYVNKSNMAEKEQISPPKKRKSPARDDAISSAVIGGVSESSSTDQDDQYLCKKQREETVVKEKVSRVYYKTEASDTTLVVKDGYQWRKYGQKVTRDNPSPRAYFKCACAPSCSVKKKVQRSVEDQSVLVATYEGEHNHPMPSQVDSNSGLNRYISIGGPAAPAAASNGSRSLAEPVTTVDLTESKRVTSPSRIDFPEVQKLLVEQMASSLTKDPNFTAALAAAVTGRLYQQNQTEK
Test: EMSA

B1: Ii4CL3 promoter mutated W-box probe (Ii4CL3mpF/mpR) (dsDNA)
DNA 1: TCCGATTTTTTTCATAATTAATTTGAAATGTGCGGTTGATTTTTTTCCAA
DNA 2: TTGGAAAAAAATCAACCGCACATTTCAAATTAATTATGAAAAAAATCGGA
B1: no binding.
